This passage reports IC50 and EC50 results from patent publication US20260109758A1 (BIOSION, published 2026).

The target in assay [1] is T1, biotin-labeled human TSLP-Fc (human, biotin-labeled).
T1 construct: also called TSLP-Fc protein; TSLP-Fc-biotin
As to the kind of experiment: cell-based blocking FACS: antibody pre-mixed with biotin human TSLP-Fc; blocked binding to cell-surface TSLPR/IL7Ra on HEK293T-TSLPR/IL7R/STAT5-Luc 5C5 cells.

For assay [2], the target named is T2, recombinant human IL4Rα-his (human, UniProt P24394 26-231, limits assumed, biotin-labeled in the capture ELISA).
T2 construct: In-house made; not shown: His tag at the C-terminus
Briefly: competitive ELISA: coated human IL4Rα-his, antibody titrated; blocked ligand biotin human IL4. Here is the method:
Briefly, 100 μL human IL4Rα-his proteins (prepared in-house, IL4Rα of SEQ ID NO: 33 with C-terminal His tag) were coated on 96-well micro plates at 2 μg/mL in PBS overnight at 4° C. The next day, plates were washed with wash buffer (PBS+0.05% w/v Tween-20, PBST), and blocked with 5% w/v non-fatty milk in PBST for 2 hours at 37° C. Plates were then washed again using wash buffer. Serially diluted bispecific antibodies or the controls (starting at 100 nM with a 5-fold serial dilution) in 2.5% w/v non-fatty milk in PBST, 100 μL per well, were added to the IL4Rα bound plates, and incubated at 37° C. for 40 minutes. […] Plates were washed again using wash buffer. Thereafter, the plates were added with 100 μL/well of streptavidin conjugated HRP (1:10000 dilution in PBST buffer, Jackson Immunoresearch, Cat #016-030-084) and incubated for 40 minutes at 37° C. Plates were washed again using wash buffer. Finally, TMB was added and the reaction was stopped using 1M H₂SO₄, and the absorbance was read at 450 nm. Data was analyzed using Graphpad Prism and IC₅₀ values were reported.
A general note: In an ELISA, binding on a coated surface is turned into a signal by an enzyme label.

Assay [3] has as its target T3, human IL4Rα expressed on 293F-IL4Rα cell surface (human, UniProt P24394 26-825).
T3 construct: whole, on cells; also called human IL4Rα-expressing cells; cell surface IL4R
As to the kind of experiment: flow cytometry on 293F-IL4Rα cells, PE anti-human IgG Fc. In general terms: In flow cytometry, cells or beads pass a laser one at a time.

B1: BSI-502-003 (bispecific antibody, human IgG1, kappa)
heavy: EVQLVESGGGLVQPGGSLRLSCAASGFTFSTYGMSWVRQAPGKGLVWVATINSNGGSTSYPDSVKGRFTISRDNAKNTLYLQMNSLRAEDTAVYYCARFFRFRNAMDYWGQGTLVTVSSGGGGSGGGGSGGGGSGGGGSDIQMTQSPSSLSASVGDRVTITCRTSENIYSYLAWYQQKPGKAPKFLVYNAKTLAEGVPSRFSGSGSGTDFTLTISSLQPEDFATYYCQHYYGPPTWTFGQGTKVEIKGGGGSGGGGSQVQLVQSGAEVKKPGASVKVSCKASGYTFTTYWMHWVRQAPGQGLEWMGVIDPSDSDTTYNQKFKGRVTMTRDTSTSTVYMELSSLRSEDTAVYYCTRSLDGYYDYWGQGTLVTVSSASTKGPSVFPLAPSSKSTSGGTAALGCLVKDYFPEPVTVSWNSGALTSGVHTFPAVLQSSGLYSLSSVVTVPSSSLGTQTYICNVNHKPSNTKVDKKVEPKSCDKTHTCPPCPAPEAQGGPSVFLFPPKPKDTLYITREPEVTCVVVDVSHEDPEVKFNWYVDGVEVHNAKTKPREEQYNSTYRVVSVLTVLHQDWLNGKEYKCQVSNKALPAPIEKTISKAKGQPREPQVYTLPPSRDELTKNQVSLTCLVKGFYPSDIAVEWESNGQPENNYKTTPPVLDSDGSFFLYSKLTVDKSRWQQGNVFSCSVMHEALHNHYTQKSLSLSPG
light: DIQMTQSPSSLSASVGDRVTITCRPTENIYSYLAWYQQKPGKAPKLLIYFARTLAEGVPSRFSGSGSGTDFTLTISSLQPEDFATYYCQHHYGTPWTFGGGTKVEIKRTVAAPSVFIFPPSDEQLKSGTASVVCLLNNFYPREAKVQWKVDNALQSGNSQESVTEQDSKDSTYSLSSTLTLSKADYEKHKVYACEVTHQGLSSPVTKSFNRGEC
notes: hu1C5F12E9-V8 IgG with an anti-IL4R scFv (huC2C1A1A1-V15, VH-VL) at the N-terminus of the heavy chain; AQQ and YTE already stand in the entry
The term IC50 denotes the concentration at which inhibition is half-maximal. Usually EC50 stands for the concentration needed to bring the measured effect to its halfway point. On to B1, for which the IC50 was 1470 pM in assay [1] and 229 pM in assay [2]. The same molecule returned an EC50 in assay [3] of 203 pM.

B2: BSI-502-001 (bispecific antibody, human IgG1, kappa)
heavy: EVQLVESGGGLVQPGGSLRLSCAASGFTFSTYGMSWVRQAPGKGLVWVATINSNGGSTSYPDSVKGRFTISRDNAKNTLYLQMNSLRAEDTAVYYCARFFRFRNAMDYWGQGTLVTVSSASTKGPSVFPLAPSSKSTSGGTAALGCLVKDYFPEPVTVSWNSGALTSGVHTFPAVLQSSGLYSLSSVVTVPSSSLGTQTYICNVNHKPSNTKVDKKVEPKSCDKTHTCPPCPAPEAQGGPSVFLFPPKPKDTLYITREPEVTCVVVDVSHEDPEVKFNWYVDGVEVHNAKTKPREEQYNSTYRVVSVLTVLHQDWLNGKEYKCQVSNKALPAPIEKTISKAKGQPREPQVYTLPPSRDELTKNQVSLTCLVKGFYPSDIAVEWESNGQPENNYKTTPPVLDSDGSFFLYSKLTVDKSRWQQGNVFSCSVMHEALHNHYTQKSLSLSPGKGGGGSGGGGSQVQLVQSGAEVKKPGASVKVSCKASGYTFTTYWMHWVRQAPGQGLEWMGVIDPSDSDTTYNQKFKGRVTMTRDTSTSTVYMELSSLRSEDTAVYYCTRSLDGYYDYWGQGTLVTVSSGGGGSGGGGSGGGGSGGGGSDIQMTQSPSSLSASVGDRVTITCRPTENIYSYLAWYQQKPGKAPKLLIYFARTLAEGVPSRFSGSGSGTDFTLTISSLQPEDFATYYCQHHYGTPWTFGGGTKVEIK
light: DIQMTQSPSSLSASVGDRVTITCRTSENIYSYLAWYQQKPGKAPKFLVYNAKTLAEGVPSRFSGSGSGTDFTLTISSLQPEDFATYYCQHYYGPPTWTFGQGTKVEIKRTVAAPSVFIFPPSDEQLKSGTASVVCLLNNFYPREAKVQWKVDNALQSGNSQESVTEQDSKDSTYSLSSTLTLSKADYEKHKVYACEVTHQGLSSPVTKSFNRGEC
notes: huC2C1A1A1-V15 IgG with an anti-TSLP scFv (hu1C5F12E9-V8, VH-VL) at the C-terminus of the heavy chain
On to B2, for which the IC50 in assay [1] was 1730 pM; in assay [2], 248 pM. The molecule further gave an EC50 in assay [3] of 180 pM.

B3: BSI-502-002 (bispecific antibody, human IgG1, kappa)
heavy: EVQLVESGGGLVQPGGSLRLSCAASGFTFSTYGMSWVRQAPGKGLVWVATINSNGGSTSYPDSVKGRFTISRDNAKNTLYLQMNSLRAEDTAVYYCARFFRFRNAMDYWGQGTLVTVSSASTKGPSVFPLAPSSKSTSGGTAALGCLVKDYFPEPVTVSWNSGALTSGVHTFPAVLQSSGLYSLSSVVTVPSSSLGTQTYICNVNHKPSNTKVDKKVEPKSCDKTHTCPPCPAPEAQGGPSVFLFPPKPKDTLYITREPEVTCVVVDVSHEDPEVKFNWYVDGVEVHNAKTKPREEQYNSTYRVVSVLTVLHQDWLNGKEYKCQVSNKALPAPIEKTISKAKGQPREPQVYTLPPSRDELTKNQVSLTCLVKGFYPSDIAVEWESNGQPENNYKTTPPVLDSDGSFFLYSKLTVDKSRWQQGNVFSCSVMHEALHNHYTQKSLSLSPGKGGGGSGGGGSDIQMTQSPSSLSASVGDRVTITCRPTENIYSYLAWYQQKPGKAPKLLIYFARTLAEGVPSRFSGSGSGTDFTLTISSLQPEDFATYYCQHHYGTPWTFGGGTKVEIKGGGGSGGGGSGGGGSGGGGSQVQLVQSGAEVKKPGASVKVSCKASGYTFTTYWMHWVRQAPGQGLEWMGVIDPSDSDTTYNQKFKGRVTMTRDTSTSTVYMELSSLRSEDTAVYYCTRSLDGYYDYWGQGTLVTVSS
light: DIQMTQSPSSLSASVGDRVTITCRTSENIYSYLAWYQQKPGKAPKFLVYNAKTLAEGVPSRFSGSGSGTDFTLTISSLQPEDFATYYCQHYYGPPTWTFGQGTKVEIKRTVAAPSVFIFPPSDEQLKSGTASVVCLLNNFYPREAKVQWKVDNALQSGNSQESVTEQDSKDSTYSLSSTLTLSKADYEKHKVYACEVTHQGLSSPVTKSFNRGEC
notes: huC2C1A1A1-V15 IgG with an anti-TSLP scFv (VL-VH) at the C-terminus of the heavy chain; AQQ and YTE already stand in the entry
Turning to B3, the IC50 came out at 4230 pM in assay [1] and 299 pM in assay [2]. Moreover, a half-maximal response in assay [3] (EC50) required 173 pM.
